One molecule from patent publication US20230203117A1 (published 2023) can be followed below.

In one test the target is B11 (+Rα) (UniProt Q13651 22-235). The test can be described thus: SPR (Biacore); pre-bound to IL-10Rα.
Another test has as its target R5A11 (+Rα) (UniProt Q13651 22-235). The test can be described thus: SPR (Biacore); pre-bound to IL-10Rα. Background: SPR reads the build-up and loss of mass on a sensor chip optically.
The next test addresses G3 (+Rα). The test can be described thus: SPR (Biacore); pre-bound to IL-10Rα.
The target in another test is A11 (+Rα) (UniProt Q13651 22-235). The test can be described thus: SPR (Biacore); pre-bound to IL-10Rα.
Test [1] deals with G3. The test is described as follows: SPR (Biacore); without IL-10Rα.
The next test addresses A11. The test is described as follows: SPR (Biacore); monomer, without IL-10Rα.
The target in the next test is B11. The test can be described thus: SPR (Biacore); monomer, without IL-10Rα.
In test [2] the target is G3. The test can be described thus: SPR (Biacore); monomer, without IL-10Rα.
Another test has as its target R5A11. The test is described as follows: SPR (Biacore); monomer, without IL-10Rα.

B1: IL-10Rβ (receptor)
chain: MVPPPENVRMNSVNFKNILQWESPAFAKGNLTFTAQYLSYRIFQDKCMNTTLTECDFSSLSKYGDHTLRVRAEFADEHSDWVNITFCPVDDTIIGPPGMQVEVLADSLHMRFLAPKIENEYETWTMKNVYNSWTYNVQYWKNGTDEKFQITPQYDFEVLRNLEPWTTYCVQVRGFLPDRNKAGEWSEPVCEQTTHDETVPSLNDIFEAQKIEWHWHHHHHH
modifications: biotinylated with BirA ligase on the biotin acceptor peptide
Consider B1, for which the Kd in the test with B11 (+Rα) is 65 nM; with R5A11 (+Rα), 100 nM; with G3 (+Rα), 8 nM; with A11 (+Rα), 23 nM; with G3 [1], 2400 nM; in the test with A11, 2400 nM. Moreover, the Kd was determined as 9400 nM in the test with B11, 2400 nM in the test with G3 [2] and 8900 nM with R5A11.

As usually defined, the Kd is a measure of binding affinity in units of concentration.
